# Measured values from patent US7070776.
# Key:
# B7 antigen (human) [1] = biological target: B7 antigen (human) (UniProt P33681); assay: cell-based or functional assay
# B7 antigen (human) [2] = biological target: B7 antigen (human) (UniProt P33681); assay: direct immunofluorescence flow cytometry, 5E1 cells
# B7 antigen (human) [3] = biological target: B7 antigen (human) (UniProt P33681); assay: direct immunofluorescence flow cytometry, T51 cells
# B7 antigen (human) [4] = biological target: B7 antigen (human) (UniProt P33681); assay: direct immunofluorescence flow cytometry, Raji cells
# B7 antigen (human) [5] = biological target: B7 antigen (human) (UniProt P33681); assay: direct immunofluorescence flow cytometry, Daudi cells
# B7 antigen (human) [6] = biological target: B7 antigen (human) (UniProt P33681); assay: direct immunofluorescence flow cytometry, Jijoye cells
# B7 antigen (human) [7] = biological target: B7 antigen (human) (UniProt P33681); assay: direct immunofluorescence flow cytometry, 5E1 B-lymphoblastoid cells, no unlabeled BB-1
# B7 antigen (human) [8] = biological target: B7 antigen (human) (UniProt P33681); assay: direct immunofluorescence flow cytometry, T51 B-lymphoblastoid cells, no unlabeled BB-1
# B7 antigen (human) [9] = biological target: B7 antigen (human) (UniProt P33681); assay: direct immunofluorescence flow cytometry, Raji Burkitt's lymphoma cells, no unlabeled BB-1
# B7 antigen (human) [10] = biological target: B7 antigen (human) (UniProt P33681); assay: direct immunofluorescence flow cytometry, Daudi Burkitt's lymphoma cells, no unlabeled BB-1
# B7 antigen (human) [11] = biological target: B7 antigen (human) (UniProt P33681); assay: direct immunofluorescence flow cytometry, Jijoye Burkitt's lymphoma cells, no unlabeled BB-1
# B7 antigen (human) [12] = biological target: B7 antigen (human) (UniProt P33681); assay: direct immunofluorescence flow cytometry, 5E1 cells, after preincubation with unlabeled (cold) BB-1
# B7 antigen (human) [13] = biological target: B7 antigen (human) (UniProt P33681); assay: direct immunofluorescence flow cytometry, T51 cells, after preincubation with unlabeled (cold) BB-1
# B7 antigen (human) [14] = biological target: B7 antigen (human) (UniProt P33681); assay: direct immunofluorescence flow cytometry, Raji cells, after preincubation with unlabeled (cold) BB-1
# B7 antigen (human) [15] = biological target: B7 antigen (human) (UniProt P33681); assay: direct immunofluorescence flow cytometry, Daudi cells, after preincubation with unlabeled (cold) BB-1
# B7 antigen (human) [16] = biological target: B7 antigen (human) (UniProt P33681); assay: direct immunofluorescence flow cytometry, Jijoye cells, after preincubation with unlabeled (cold) BB-1
# CD28 receptor (human) = CD28 receptor (human) (UniProt P10747); assay: cell-based or functional assay
# Chain of B7 antigen (human) (P33681 35-288): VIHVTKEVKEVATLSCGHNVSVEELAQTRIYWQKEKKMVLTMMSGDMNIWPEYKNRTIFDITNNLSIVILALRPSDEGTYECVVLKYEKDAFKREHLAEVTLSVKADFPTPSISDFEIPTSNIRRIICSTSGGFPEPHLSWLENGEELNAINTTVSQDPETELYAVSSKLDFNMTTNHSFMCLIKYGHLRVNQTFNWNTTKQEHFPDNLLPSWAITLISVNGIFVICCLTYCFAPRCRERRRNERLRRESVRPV
substance,measurement,setting,value
mAb BB-1 (anti-B7) (antibody),"[^3H]-T incorporation of PHA blasts stimulated with B7+ CHO (40:1), BB-1 at 10 µg/ml",B7 antigen (human) [1],98300 cpm
same,"blocking of adhesion of Jijoye cells to CD28+ CHO cells, 10 mM EDTA",B7 antigen (human) [1],60%
same,"SPECIFIC BINDING (mean fluorescence, -cold minus +cold)",B7 antigen (human) [2],10.6 linear units
same,"SPECIFIC BINDING (mean fluorescence, -cold minus +cold)",B7 antigen (human) [3],13.4 linear units
same,"SPECIFIC BINDING (mean fluorescence, -cold minus +cold)",B7 antigen (human) [4],4.3 linear units
same,"SPECIFIC BINDING (mean fluorescence, -cold minus +cold)",B7 antigen (human) [5],3.6 linear units
same,"SPECIFIC BINDING (mean fluorescence, -cold minus +cold)",B7 antigen (human) [6],15 linear units
same,"mean fluorescence (linear units), FITC-BB-1 -COLD",B7 antigen (human) [7],13 linear units
same,"mean fluorescence (linear units), FITC-BB-1 -COLD",B7 antigen (human) [8],16.4 linear units
same,"mean fluorescence (linear units), FITC-BB-1 -COLD",B7 antigen (human) [9],7.1 linear units
same,"mean fluorescence (linear units), FITC-BB-1 -COLD",B7 antigen (human) [10],6.4 linear units
same,"mean fluorescence (linear units), FITC-BB-1 -COLD",B7 antigen (human) [11],17.8 linear units
same,"mean fluorescence (linear units), FITC-BB-1 +COLD",B7 antigen (human) [12],2.4 linear units
same,"mean fluorescence (linear units), FITC-BB-1 +COLD",B7 antigen (human) [13],3 linear units
same,"mean fluorescence (linear units), FITC-BB-1 +COLD",B7 antigen (human) [14],2.8 linear units
same,"mean fluorescence (linear units), FITC-BB-1 +COLD",B7 antigen (human) [15],2.8 linear units
same,"mean fluorescence (linear units), FITC-BB-1 +COLD",B7 antigen (human) [16],2.8 linear units
mAb 9.3 (Fab fragments),"[^3H]-T incorporation of PHA blasts stimulated with B7+ CHO (40:1), 9.3 Fab at 10 µg/ml",CD28 receptor (human),132000 cpm
monoclonal antibody (mAb) 9.3 (anti-CD28),"[^3H]-T incorporation of PBL, +Anti-CD3, mAb 9.3 (immob.), Exp. 1",CD28 receptor (human),137000 cpm
same,"[^3H]-T incorporation of PBL, +Anti-CD3, mAb 9.3 (soln.), Exp. 1",CD28 receptor (human),156000 cpm
same,"[^3H]-T incorporation of PBL, +Anti-CD3, mAb 9.3 (soln.), Exp. 2",CD28 receptor (human),75800 cpm
same,"[^3H]-T incorporation of PBL, -Anti-CD3, mAb 9.3 (immob.), Exp. 1",CD28 receptor (human),100 cpm
same,"[^3H]-T incorporation of PBL, -Anti-CD3, mAb 9.3 (soln.), Exp. 1",CD28 receptor (human),300 cpm
same,"[^3H]-T incorporation of PBL, -Anti-CD3, mAb 9.3 (soln.), Exp. 2",CD28 receptor (human),400 cpm
same,"blocking of adhesion of B7 transfected COS cells to CD28+ CHO cells, EDTA omitted",CD28 receptor (human),40%
same,half-maximal inhibition of CD28-mediated adhesion (PM cells to CD28+ CHO),CD28 receptor (human),10 nM
same,reduction of T51 cell adhesion to CD28+ CHO cells by mAb 9.3 alone (no EDTA),CD28 receptor (human),62%
same,reduction of T51 cell adhesion to CD28+ CHO cells by mAb 9.3 plus EDTA,CD28 receptor (human),93%
